Positions count from the first letter of the chain named. Names may count otherwise.
B1: ^402GCFNF^406ISAQT: Caspase-9 homodimerization domain mutant (SEQ ID NOS 95 and 96) (Casp-10) (protein, UniProt P55211 1-416, looked up, variant G402I C403S F404A N405Q F406T)
chain: MDEADRRLLRRCRLRLVEELQVDQLWDALLSRELFRPHMIEDIQRAGSGSRRDQARQLIIDLETRGSQALPLFISCLEDTGQDMLASFLRTNRQAAKLSKPTLENLTPVVLRPEIRKPEVLRPETPRPVDIGSGGFGDVGALESLRGNADLAYILSMEPCGHCLIINNVNFCRESGLRTRTGSNIDCEKLRRRFSSLHFMVEVKGDLTAKKMVLALLELAQQDHGALDCCVVVILSHGCQASHLQFPGAVYGTDGCPVSVEKIVNIFNGTSCPSLGGKPKLFFIQACGGEQKDHGFEVASTSPEDESPGSNPEPDATPFQEGLRTFDQLDAISSLPTPSDIFVSYSTFPGFVSWRDPKSGSWYVETLDDIFEQWAHSEDLQSLLLRVANAVSVKGIYKQMPISAQTLRKKLFFKTS
B2: N405Qco: Caspase-9 mutant (protein, UniProt P55211 1-416, looked up, variant N405Q)
chain: B1 chain with I402G, S403C, A404F, T406F
modifications: codon-optimized
notes: Caspase-9 mutant
B3: N405Q-T3175 (protein, UniProt P55211 1-416, looked up, variant N405Q T317S)
chain: B1 chain with T317S, I402G, S403C, A404F, T406F
B4: D330A-S144A (protein)
chain: GFGDVGALEALRGNADLAYILSMEPCGHCLIINNVNFCRESGLRTRTGSNIDCEKLRRRFSSLHFMVEVKGDLTAKKMVLALLELAQQDHGALDCCVVVILSHGCQASHLQFPGAVYGTDGCPVSVEKIVNIFNGTSCPSLGGKPKLFFIQACGGEQKDHGFEVASTSPEDESPGSNPEPDATPFQEGLRTFDQLAAISSLPTPSDIFVSYSTFPGFVSWRDPKSGSWYVETLDDIFEQWAHSEDLQSLLLRVANAVSVKGIYKQMPGCFNFLRKKLFFKTS
B5: Y153A (protein)
chain: B4 chain with A10S, Y19A, A196D
B6: N405F (protein)
chain: B4 chain with A10S, A196D, N271F
B7: F406Y (protein)
chain: B4 chain with A10S, A196D, F272Y
B8: N405Q-S144A (protein)
chain: B4 chain with A196D, N271Q
B9: N405Q-S196D (protein)
chain: B4 chain with A10S, S62D, A196D, N271Q
B10: C403A (protein)
chain: B4 chain with A10S, A196D, C269A
B11: D330A-S196A (protein)
chain: B4 chain with A10S, S62A
B12: D330E (protein)
chain: B4 chain with A10S, A196E
B13: F319W (protein)
chain: B4 chain with A10S, F185W, A196D
B14: D330A (protein)
chain: B4 chain with A10S
B15: F404W (protein)
chain: B4 chain with A10S, A196D, F270W
B16: D315A (protein)
chain: B4 chain with A10S, D181A, A196D
B17: S307A (protein)
chain: B4 chain with A10S, S173A, A196D
B18: F406T (protein)
chain: B4 chain with A10S, A196D, F272T
B19: F404Y (protein)
chain: B4 chain with A10S, A196D, F270Y
B20: D330A-S183A (protein)
chain: B4 chain with A10S, S49A
B21: Y153F (protein)
chain: B4 chain with A10S, Y19F, A196D
B22: F406A (protein)
chain: B4 chain with A10S, A196D, F272A
B23: D330A-S144D (protein)
chain: B4 chain with A10D
B24: F404T (protein)
chain: B4 chain with A10S, A196D, F270T
B25: N405Q-S144D (protein)
chain: B4 chain with A10D, A196D, N271Q
B26: A316G (protein)
chain: B4 chain with A10S, A182G, A196D
B27: F406W (protein)
chain: B4 chain with A10S, A196D, F272W
B28: N405Q-S144Aco (protein, UniProt P55211 1-416, looked up, variant N405Q S144A)
chain: B1 chain with S144A, I402G, S403C, A404F, T406F
modifications: codon optimized
B29: N405Q-T317Sco (protein, UniProt P55211 1-416, looked up, variant N405Q T317S)
chain: B1 chain with T317S, I402G, S403C, A404F, T406F

Each molecule was assayed on chimeric Caspase-9 polypeptide (assay: Caspase mutant classes and basal activity (Table 3)). Details: class heading of Table 3.
Sequence of chimeric Caspase-9 polypeptide (as listed by the source, change not shown): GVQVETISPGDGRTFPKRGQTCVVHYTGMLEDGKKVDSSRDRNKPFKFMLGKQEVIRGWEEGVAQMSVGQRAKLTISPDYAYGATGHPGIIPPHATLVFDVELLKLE
Format: cell-based, human
In the case of B1, the “Basal Activity” value is reported as “Decreased”.
For B2, the “Basal Activity” value was “Decreased”.
B3 was tested, and the “Basal Activity” value was “Decreased”.
B4 was tested, and the “Basal Activity” value was “Decreased”.
In the case of B5, the “Basal Activity” value is reported as “Decreased”.
In the case of B6, the “Basal Activity” value is reported as “Decreased”.
For B7, the “Basal Activity” value was “Decreased”.
With B8 the “Basal Activity” value was “Decreased”.
For B9, the “Basal Activity” value was “Decreased”.
For B10, the “Basal Activity” value was “Similar”.
In the case of B11, the “Basal Activity” value is reported as “Decreased”.
For B12, the “Basal Activity” value was “Decreased”.
With B13 the “Basal Activity” value was “Decreased”.
In the case of B14, the “Basal Activity” value is reported as “Decreased”.
For B15, the “Basal Activity” value was “Decreased”.
In the case of B16, the “Basal Activity” value is reported as “Decreased”.
In the case of B17, the “Basal Activity” value is reported as “Decreased”.
In the case of B18, the “Basal Activity” value is reported as “Decreased”.
In the case of B19, the “Basal Activity” value is reported as “Decreased”.
B20 was tested, and the “Basal Activity” value was “Decreased”.
In the case of B21, the “Basal Activity” value is reported as “Decreased”.
B22 was tested, and the “Basal Activity” value was “Decreased”.
In the case of B23, the “Basal Activity” value is reported as “Decreased”.
For B24, the “Basal Activity” value was “Decreased”.
B25 was tested, and the “Basal Activity” value was “Decreased”.
In the case of B26, the “Basal Activity” value is reported as “Decreased”.
For B27, the “Basal Activity” value was “Decreased”.

Same assay, conditions: class heading of Table 3; ligand IC50
B1 was tested, and the IC50 was “higher IC50”.
With B2 the IC50 was “higher IC50”.
For B3, the IC50 was “higher IC50”.
With B4 the IC50 was “higher IC50”.
B5 was tested, and the IC50 was “much higher”.
In the case of B6, the IC50 is reported as “much higher”.
For B7, the IC50 was “higher IC50”.
For B8, the IC50 was “higher IC50”.
B9 was tested, and the IC50 was “higher IC50”.
B10 was tested, and the IC50 was “Similar”.
For B11, the IC50 was “higher IC50”.
For B12, the IC50 was “higher IC50”.
B13 was tested, and the IC50 was “much higher”.
For B14, the IC50 was “higher IC50”.
In the case of B15, the IC50 is reported as “much higher”.
B16 was tested, and the IC50 was “much higher”.
B17 was tested, and the IC50 was “much higher”.
B18 was tested, and the IC50 was “much higher”.
B19 was tested, and the IC50 was “higher IC50”.
For B20, the IC50 was “higher IC50”.
For B21, the IC50 was “much higher”.
With B22 the IC50 was “higher IC50”.
For B23, the IC50 was “higher IC50”.
For B24, the IC50 was “much higher”.
In the case of B25, the IC50 is reported as “higher IC50”.
In the case of B26, the IC50 is reported as “much higher”.
B27 was tested, and the IC50 was “higher IC50”.

Same assay, conditions: class heading of Table 3; marked *, predicted
In the case of B28, the “Basal Activity” value is reported as “Decreased”.
In the case of B29, the “Basal Activity” value is reported as “Decreased”.

— US20160263155A1, “T CELL RECEPTORS DIRECTED AGAINST THE PREFERENTIALLY EXPRESSED ANTIGEN OF MELANOMA AND USES THEREOF” (LEIDEN UNIVERSITY MEDICAL CENTER, priority 2015, published 2016)
